In the supplement of paper PMC10567573:

B1: IKZF1 (parent)
chain: RDPFECNMCGYHSQDRYEFSSHIT
B2: ZNF207 (parent)
chain: YQGGPPRPPMGMRPPVMSQGGRY

Variants of: B1
Assay: protein stability index of a GFP-peptide fusion (GPS, HEK-293T) (PSI 1-6); higher = more stable
Conditions: c terminus: a fixed tail appended
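Also: lentivirally expressed fusions sorted by FACS into six bins by GFP to DsRed ratio, PSI derived from sequencing read proportions per bin multiplied by bin number.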

| Variant | protein stability index |
| --- | --- |
| RDPFECNMCGYHSQDRYPFSSHIT [E18P] | 1.67 |
| RDPFECNMCGYHSQDRYTFSSHIT [E18T] | 1.54 |
| RDPFECNMCGYHSQDRYYFSSHIT [E18Y] | 1.43 |
| RDPFECNMCGYHSQDRYRFSSHIT [E18R] | 1.99 |
| RDPFECNMCGYHSQDRYQFSSHIT [E18Q] | 1.79 |
| RDPFECNMCGYHSQDRYSFSSHIT [E18S] | 2.11 |
| RDPFECNMCGYHSQDRYVFSSHIT [E18V] | 2.72 |
| RDPFECNMCGYHSQDRYWFSSHIT [E18W] | 1.51 |
| RDPFECNMCGYHSQDRYEFSCHIT [S21C] | 2.21 |
| RDPFECNMCGYHSQDRYEFSRHIT [S21R] | 1.84 |
| RDPFECNMCGYHSQDRYEFSEHIT [S21E] | 2.27 |
| RDPFECNMCGYHSQDRYEFSVHIT [S21V] | 2.36 |
| RDPFECNMCGYHSQDRYEFSTHIT [S21T] | 2.35 |
| RDPFECNMCGYHSQDRYEFSAHIT [S21A] | 1.81 |
| RDPFECNMCGYHSQDRYEFSWHIT [S21W] | 2.31 |
| RDPFECNMCGYHSQDRYEFSDHIT [S21D] | 2.17 |
| RDPFECNMCGYHSQDRYEFSNHIT [S21N] | 2.3 |
| RDPFECNMCGYHSQDRYEFSPHIT [S21P] | 2.68 |
| RDPFECNMCGYHSQDRYEFSMHIT [S21M] | 1.84 |
| RDPFECNMCGYHSQDRYEFSIHIT [S21I] | 2.28 |
| RDPFECNMCGYHSQDRYEFSQHIT [S21Q] | 1.83 |
| RDPFECNMCGYHSQDRYEFSLHIT [S21L] | 2.03 |
| RDPFECNMCGYHSQDRYEFSHHIT [S21H] | 2.63 |
| RDPFECNMCGYHSQDRYEFSGHIT [S21G] | 2.38 |
| RDPFECNMCGYHSQDRYEFSKHIT [S21K] | 2.28 |
| RDPFECNMCGYHSQDRYEFSYHIT [S21Y] | 1.57 |
| RDPFECNMCGYHSQDRYEFSFHIT [S21F] | 2.06 |

Variants of: B2
Assay: as above
Conditions: c terminus: native

| Variant | protein stability index |
| --- | --- |
| YQGHPPRPPMGMRPPVMSQGGRY [G4H] | 2.6 |
| YQGDPPRPPMGMRPPVMSQGGRY [G4D] | 3.56 |
| YQGQPPRPPMGMRPPVMSQGGRY [G4Q] | 3.54 |
| YQGWPPRPPMGMRPPVMSQGGRY [G4W] | 3.5 |
| YQGCPPRPPMGMRPPVMSQGGRY [G4C] | 2.52 |
| YQGIPPRPPMGMRPPVMSQGGRY [G4I] | 2.34 |
| YQGEPPRPPMGMRPPVMSQGGRY [G4E] | 2.69 |
| YQGLPPRPPMGMRPPVMSQGGRY [G4L] | 1.5 |
| YQGYPPRPPMGMRPPVMSQGGRY [G4Y] | 2.05 |
| YQGSPPRPPMGMRPPVMSQGGRY [G4S] | 3.05 |
| YQGNPPRPPMGMRPPVMSQGGRY [G4N] | 3.23 |
| YQGVPPRPPMGMRPPVMSQGGRY [G4V] | 2.74 |
| YQGRPPRPPMGMRPPVMSQGGRY [G4R] | 2.51 |
| YQGKPPRPPMGMRPPVMSQGGRY [G4K] | 2.78 |
| YQGMPPRPPMGMRPPVMSQGGRY [G4M] | 1.46 |
| YQGGPCRPPMGMRPPVMSQGGRY [P6C] | 1.96 |
| YQGGPARPPMGMRPPVMSQGGRY [P6A] | 1.6 |
| YKGGPPRPPMGMRPPVMSQGGRY [Q2K] | 2.57 |
| YFGGPPRPPMGMRPPVMSQGGRY [Q2F] | 1.65 |
| YMGGPPRPPMGMRPPVMSQGGRY [Q2M] | 2.05 |
| YYGGPPRPPMGMRPPVMSQGGRY [Q2Y] | 2.89 |
| YEGGPPRPPMGMRPPVMSQGGRY [Q2E] | 2.4 |
| YAGGPPRPPMGMRPPVMSQGGRY [Q2A] | 2.19 |

| Variant | protein stability index |
| --- | --- |
| YGGGPPRPPMGMRPPVMSQGGRY [Q2G] | 3.02 |
| YPGGPPRPPMGMRPPVMSQGGRY [Q2P] | 1.72 |
| YLGGPPRPPMGMRPPVMSQGGRY [Q2L] | 2.34 |
| YNGGPPRPPMGMRPPVMSQGGRY [Q2N] | 2.45 |
| YWGGPPRPPMGMRPPVMSQGGRY [Q2W] | 2.1 |
| YDGGPPRPPMGMRPPVMSQGGRY [Q2D] | 2.16 |
| YQLGPPRPPMGMRPPVMSQGGRY [G3L] | 2.31 |
| YQMGPPRPPMGMRPPVMSQGGRY [G3M] | 1.59 |
| YQVGPPRPPMGMRPPVMSQGGRY [G3V] | 1.43 |
| YQIGPPRPPMGMRPPVMSQGGRY [G3I] | 3.37 |
| YQAGPPRPPMGMRPPVMSQGGRY [G3A] | 2.62 |
| YQNGPPRPPMGMRPPVMSQGGRY [G3N] | 1.38 |
| YQKGPPRPPMGMRPPVMSQGGRY [G3K] | 2.89 |
| YQSGPPRPPMGMRPPVMSQGGRY [G3S] | 1.47 |
| YQQGPPRPPMGMRPPVMSQGGRY [G3Q] | 2.32 |
| YQEGPPRPPMGMRPPVMSQGGRY [G3E] | 2.33 |
| YQYGPPRPPMGMRPPVMSQGGRY [G3Y] | 2.42 |
| YQHGPPRPPMGMRPPVMSQGGRY [G3H] | 1.5 |
| YQWGPPRPPMGMRPPVMSQGGRY [G3W] | 1.39 |
| CQGGPPRPPMGMRPPVMSQGGRY [Y1C] | 3.27 |
| IQGGPPRPPMGMRPPVMSQGGRY [Y1I] | 2.89 |
| TQGGPPRPPMGMRPPVMSQGGRY [Y1T] | 2.64 |
| KQGGPPRPPMGMRPPVMSQGGRY [Y1K] | 3.55 |

| Variant | protein stability index |
| --- | --- |
| AQGGPPRPPMGMRPPVMSQGGRY [Y1A] | 3.11 |
| NQGGPPRPPMGMRPPVMSQGGRY [Y1N] | 3.31 |
| MQGGPPRPPMGMRPPVMSQGGRY [Y1M] | 3.87 |
| SQGGPPRPPMGMRPPVMSQGGRY [Y1S] | 1.67 |
| GQGGPPRPPMGMRPPVMSQGGRY [Y1G] | 3.87 |
| RQGGPPRPPMGMRPPVMSQGGRY [Y1R] | 3.21 |
| HQGGPPRPPMGMRPPVMSQGGRY [Y1H] | 2.91 |
| QQGGPPRPPMGMRPPVMSQGGRY [Y1Q] | 3.65 |
| WQGGPPRPPMGMRPPVMSQGGRY [Y1W] | 2.49 |
| YQGGGPRPPMGMRPPVMSQGGRY [P5G] | 2.99 |
| YQGGEPRPPMGMRPPVMSQGGRY [P5E] | 2.81 |
| YQGGQPRPPMGMRPPVMSQGGRY [P5Q] | 2.62 |
| YQGGVPRPPMGMRPPVMSQGGRY [P5V] | 2.82 |
| YQGGIPRPPMGMRPPVMSQGGRY [P5I] | 1.71 |
| YQGGHPRPPMGMRPPVMSQGGRY [P5H] | 1.92 |
| YQGGLPRPPMGMRPPVMSQGGRY [P5L] | 2.34 |
| YQGGMPRPPMGMRPPVMSQGGRY [P5M] | 1.22 |
| YQGGKPRPPMGMRPPVMSQGGRY [P5K] | 2.56 |
| YQGGNPRPPMGMRPPVMSQGGRY [P5N] | 2.12 |
| YQGGTPRPPMGMRPPVMSQGGRY [P5T] | 3.09 |
| YQGGCPRPPMGMRPPVMSQGGRY [P5C] | 1.61 |
| YQGGAPRPPMGMRPPVMSQGGRY [P5A] | 2.27 |
